The text below walks through data of article PMC3103431, “The four Zn fingers of MBNL1 provide a flexible platform for recognition of its RNA binding elements”.

Data set [1] has as its target T1, MBNL1 (2-260) (Homo sapiens, UniProt Q9NR56 2-260).
T1 sequence: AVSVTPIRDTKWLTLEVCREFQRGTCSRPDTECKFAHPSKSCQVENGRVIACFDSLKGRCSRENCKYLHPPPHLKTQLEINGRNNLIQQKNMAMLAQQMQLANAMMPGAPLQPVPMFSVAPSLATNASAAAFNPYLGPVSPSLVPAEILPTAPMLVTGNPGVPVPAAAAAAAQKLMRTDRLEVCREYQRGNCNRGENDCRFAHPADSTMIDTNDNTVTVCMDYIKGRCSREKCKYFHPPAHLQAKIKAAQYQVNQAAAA
Briefly: EMSA; 5 mM Mg2+; 100 mM NaCl, 21 mM Tris pH 7.5, 5 mM MgCl2, 0.1 mM EDTA, 2 mg/mL BSA, 0.1 mg/mL heparin, 0.5 mM BME, 5 mM DTT, 0.02% Triton X-100, 10% glycerol, 0.02 nM RNA, room temperature 30 min. The following applies: protein: recombinant; tags: GST tag removed; label: 5' 32P; single-stranded. A general note: In EMSA bound probe runs differently from free probe, usually more slowly.

Data set [2] concerns the target T1, MBNL1 (2-260). The experiment in a line: EMSA; 5 mM Mg2+; smearing; 100 mM NaCl, 21 mM Tris pH 7.5, 5 mM MgCl2, 0.1 mM EDTA, 2 mg/mL BSA, 0.1 mg/mL heparin, 0.5 mM BME, 5 mM DTT, 0.02% Triton X-100, 10% glycerol, 0.02 nM RNA, room temperature 30 min. The settings on record: protein: recombinant; tags: GST tag removed; label: 5' 32P; single-stranded.
Data set [3] deals with T1, MBNL1 (2-260). The experiment in a line: EMSA; 5 mM Mg2+; wild type level; 100 mM NaCl, 21 mM Tris pH 7.5, 5 mM MgCl2, 0.1 mM EDTA, 2 mg/mL BSA, 0.1 mg/mL heparin, 0.5 mM BME, 5 mM DTT, 0.02% Triton X-100, 10% glycerol, 0.02 nM RNA, room temperature 30 min. The settings on record: protein: recombinant; tags: GST tag removed; label: 5' 32P; single-stranded.
For data set [4], the target named is T1, MBNL1 (2-260). The experiment in a line: EMSA; 5 mM Mg2+; range for 2, 3 and 4 GC RNAs; 100 mM NaCl, 21 mM Tris pH 7.5, 5 mM MgCl2, 0.1 mM EDTA, 2 mg/mL BSA, 0.1 mg/mL heparin, 0.5 mM BME, 5 mM DTT, 0.02% Triton X-100, 10% glycerol, 0.02 nM RNA, room temperature 30 min. The settings on record: protein: recombinant; tags: GST tag removed; label: 5' 32P; single-stranded.

Data set [5] deals with T1, MBNL1 (2-260). The experiment in a line: EMSA; 5 mM Mg2+; 100 mM NaCl, 21 mM Tris pH 7.5, 5 mM MgCl2, 0.1 mM EDTA, 2 mg/mL BSA, 0.1 mg/mL heparin, 0.5 mM BME, 5 mM DTT, 0.02% Triton X-100, 10% glycerol, 0.02 nM RNA, room temperature 30 min. The settings on record: protein: recombinant, tags: GST tag removed, label: 5' 32P.
For data set [6], the target named is T1, MBNL1 (2-260). Briefly: EMSA; 5 mM Mg2+; smearing; 100 mM NaCl, 21 mM Tris pH 7.5, 5 mM MgCl2, 0.1 mM EDTA, 2 mg/mL BSA, 0.1 mg/mL heparin, 0.5 mM BME, 5 mM DTT, 0.02% Triton X-100, 10% glycerol, 0.02 nM RNA, room temperature 30 min. The settings on record: protein: recombinant; tags: GST tag removed; label: 5' 32P; single-stranded. The source holds these as a separate data set.

Data set [7] concerns the target T1, MBNL1 (2-260). Briefly: competition; vs 32P-2GC 0.02 nM, 33.3 nM MBNL1; 100 mM NaCl, 21 mM Tris pH 7.5, 5 mM MgCl2, 0.1 mM EDTA, 2 mg/mL BSA, 0.1 mg/mL heparin, 0.5 mM BME, 5 mM DTT, 0.02% Triton X-100, 10% glycerol, 0.02 nM RNA, room temperature 30 min. The settings on record: protein: recombinant; tags: GST tag removed; label: 5' 32P; single-stranded.
The target in data set [8] is T1, MBNL1 (2-260). The experiment in a line: EMSA; 5 mM Mg2+; 100 mM NaCl, 21 mM Tris pH 7.5, 5 mM MgCl2, 0.1 mM EDTA, 2 mg/mL BSA, 0.1 mg/mL heparin, 0.5 mM BME, 5 mM DTT, 0.02% Triton X-100, 10% glycerol, 0.02 nM RNA, room temperature 30 min. The settings on record: protein: recombinant; tags: GST tag removed; label: 5' 32P; single-stranded. The source holds these as a separate data set.

One may read the Kd as the equilibrium constant for the complex coming apart.

UUUGCUUUUUUUUUUUUUGCUUU (ssRNA) [2GC]: the Kd in the data set with MBNL1 (2-260) [1] is 11 nM.

As to UCCUUUUUUUUUCCUGCUUUUUUUUUCCU (ssRNA) [1GC#2], the binding signal with MBNL1 (2-260) [2] was ~5 fold higher Kd than the 2-4 GC 29-nt RNAs.

Regarding CCUGCUCCCCCCCCCCCUGCUCC (ssRNA) [C4], in the data set with MBNL1 (2-260) [3], the binding result is on record as “binds”.

As for UGCUUUUUUUUUGCUGCUUUUUUUUUGCU (ssRNA) [4GC], in the data set with MBNL1 (2-260) [4], the Kd was found to be 3.16 nM.

As to UUAGCAUUUUUUUUUUUAGCAUU (ssRNA) [AGCA], in the data set with MBNL1 (2-260) [5] (single-stranded), the binding signal was 5 fold weaker than 2GC.

As for UUCGCCUUUUUUUUUUUCGCCUU (ssRNA) [CGCC], the Kd with MBNL1 (2-260) [1] worked out at 7 nM.

For UUUGCUUUUUUUUUUUUUUUUUU (ssRNA) [1GC], the Kd with MBNL1 (2-260) [6] amounted to 45 nM. For the same molecule, the binding signal in the data set with MBNL1 (2-260) [7] was 15 fold weaker than 2GC.

For the molecule AAUGCUAAAAAAAAAAAUGCUAA (ssRNA) [A4], the binding signal with MBNL1 (2-260) [8] was above 10 fold weaker than 2GC.

With CCCGCCCCCCCCCCCCCCGCCCC (ssRNA) [C], in the data set with MBNL1 (2-260) [1], the Kd came out at 111 nM.

Take UUGGCGUUUUUUUUUUUGGCGUU (ssRNA) [GGCG]: the binding signal with MBNL1 (2-260) [5] was 40 fold weaker than 2GC.
